Results on 2 molecules are retold here after paper PMC12866752 (2025).

B1: wild-type human interferon-λ3 (hIFN-λ3-WT), His-tagged (ligand)
chain: VPVARLRGALPDARGCHIAQFKSLSPQELQAFKRAKDALEESLLLKDCKCRSRLFPRTWDLRQLQVRERPVALEAELALTLKVLEATADTDPALGDVLDQPLHTLHHILSQLRACIQPQPTAGPRTRGRLHHWLHRLQEAPKKESPGCLEASVTFNLFRLLTRDLNCVASGDLCV
B2: recombinant ectodomain of human IFN-λ receptor 1 (hIFN-λR1) (receptor)
chain: RPRLAPPQNVTLLSQNFSVYLTWLPGLGNPQDVTYFVAYQSSPTRRRWREVEECAGTKELLCSMMCLKKQDLYNKFKGRVRTVSPSSKSPWVESEYLDYLFEVEPAPPVLVLTQTEEILSANATYQLPPCMPPLDLKYEVAFWKEGAGNKTLFPVTPHGQPVQITLQPAASEHHCLSARTIYTFSVPKYSKFSKPTCFLLEVPEANWA

Common to all, as to experiment: SPR
A general note: SPR reads the build-up and loss of mass on a sensor chip optically.

The target of assay [1] is B2.
Assay [2] has as its target B2.
Assay [3] addresses designed human interferon-λ3 variant hIFN-λ3-DE1, His-tagged (human, UniProt Q8IZI9).

The Kd is a measure of binding affinity in units of concentration. Broadly, the koff is a measure of how fast the partners let go of each other. Turning to B1, in assay [1], the dissociation constant Kd was determined as 7.67 nM. Moreover, the koff in assay [2] turned out to be 0.0183 s⁻¹.
In assay [3], B2 displayed a Kd of 6.61 nM and a koff of 0.0244 s⁻¹.
